The record followed here is FireProtDB (doi:10.1021/bi00017a003).

B1: Subtilisin-chymotrypsin inhibitor-2A, P01053 (parent)
chain: MSSVEKKPEGVNTGAGDRHNLKTEWPELVGKSVEEAKKVILQDKPEAQIIVLPVGTIVTMEYRIDRVRLFVDKLDNIAQVPRVG

This series covers variants of B1. The settings on record: Hordeum vulgare; pH 6.3; 25 °C; GdnHCl; Fluorescence; MES 50 mM; structure 2CI2; whole UniProt chain shown.

On to MSSVEKKPEGVNTGAGDRHNLKTEWPELVGKSVEEAKKVILQDKPEAQIIVLPTGTIVTMEYRIDRVRLFVDKLDNIAQVPRVG [V54T], for which the “ddG of mutation (higher = less stable)” value was found to be 1.03 kcal/mol, the denaturant m value amounted to 1.65 kcal/mol/M and the “denaturant midpoint (higher = more stable)” value (“denaturant midpoint” below) turned out to be 3.47 M.
The corresponding values for MSSVEKKPEGVNTGAGDRHNLKTEWPELVGKSVEEAKKVILQDKPEAQIIVLPGGTIVTMEYRIDRVRLFVDKLDNIAQVPRVG [V54G] are 2.43 kcal/mol, 2 kcal/mol/M and 2.75 M.
The corresponding values for MSSVEKKPEGVNTGAGDRHNLKTEWPELVGKSVEEAKKVILQDKPEAQIIVLPVGTIVTMEYRIDRVRLFVDKLDNIAQTPRVG [V80T] are 0.38 kcal/mol, 1.63 kcal/mol/M and 3.8 M.
For MSSVEKKPEGVNTGAGDRHNLKTEWPELVGKSVEEAKKVILQDKPEAQIIVLPVGTIVTMEYRIDRVRLFVDKLDNIAQGPRVG [V80G], the “ddG of mutation (higher = less stable)” value was 3.24 kcal/mol, the denaturant m value came to 2.61 kcal/mol/M and the “denaturant midpoint” value stood at 2.33 M.
In the case of MSSVEKKPEGVNTGAGDRHNLKTEWPELVGKSVEEAKKVILQDKPEAQIIVLPVGTIVTMEYRIDRVRLFVDKLDNIAQAPRVG [V80A], the “ddG of mutation (higher = less stable)” value was found to be 1.51 kcal/mol, the denaturant m value came out at 1.92 kcal/mol/M and the “denaturant midpoint” value is 3.22 M.
As to MSSVEKKPEGVNTGAGDRHNLKTEWPELVGKSVEEAKKVILQDKPEAQIIVLPVGTIVTMEYRIDRVRLFVDKLDNIGQVPRVG [A78G], the “ddG of mutation (higher = less stable)” value turned out to be 1.88 kcal/mol, the denaturant m value worked out at 2.19 kcal/mol/M and the “denaturant midpoint” value was 3.03 M.
The corresponding values for MSSVEKKPEGVNTGAGDRHNLKTEWPELVGKSVEEAKKVILQDKPEAQIAVLPVGTIVTMEYRIDRVRLFVDKLDNIAQVPRVG [I50A] are 2.12 kcal/mol, 2.22 kcal/mol/M and 3.91 M.
The matching figures for MSSVEKKPEGVNTGAGDRHNLKTEWPELVGKSVEEAKKVILQDKPEAQIGVLPVGTIVTMEYRIDRVRLFVDKLDNIAQVPRVG [I50G]: 3.52 kcal/mol, 2.13 kcal/mol/M and 2.19 M.
The corresponding values for MSSVEKKPEGVNTGAGDRHNLKTEWPELVGKSVEEAKKVILQDKPEAQIVVLPVGTIVTMEYRIDRVRLFVDKLDNIAQVPRVG [I50V] are -0.08 kcal/mol, 1.77 kcal/mol/M and 4.04 M.
As for MSSVEKKPEGVNTGAGDRHNLKTEWPELVGKSVEEAKKVILQDKPEAQIIVLPVGTIVTMEYRIDRVRLFVDKLDNIAQVPRAG [V83A], the “ddG of mutation (higher = less stable)” value came out at 1.45 kcal/mol, the denaturant m value turned out to be 1.95 kcal/mol/M and the “denaturant midpoint” value is 3.25 M.
The matching figures for MSSVEKKPEGVNTGAGDRHNLKTEWPELVGKSVEEAKKVILQDKPEAQIIVLPVGTIVTMEYRIDRVRLFVDKLDNIAQVPRGG [V83G]: 3.5 kcal/mol, 2.1 kcal/mol/M and 2.2 M.
The matching figures for MSSVEKKPEGVNTGAGDRHNLKTEWPELVGKSVEEAKKVILQDKPEAQIIVLPVGTIVTMEYRIDRVRLFVDKLDNIAQVPRTG [V83T]: 1.15 kcal/mol, 1.79 kcal/mol/M and 3.41 M.
MSSVEKKPEGVNTGAGDRHNLKAEWPELVGKSVEEAKKVILQDKPEAQIIVLPVGTIVTMEYRIDRVRLFVDKLDNIAQVPRVG [T23A]: the “ddG of mutation (higher = less stable)” value amounted to 0.85 kcal/mol, the denaturant m value was 1.83 kcal/mol/M and the “denaturant midpoint” value was 3.56 M.
On to MSSVEKKPEGVNTGAGDRHNLKGEWPELVGKSVEEAKKVILQDKPEAQIIVLPVGTIVTMEYRIDRVRLFVDKLDNIAQVPRVG [T23G], for which the “ddG of mutation (higher = less stable)” value came to 1.16 kcal/mol, the denaturant m value is 1.95 kcal/mol/M and the “denaturant midpoint” value came to 3.4 M.
Turning to MSSVEKKPEGVNTGAGDRHNLKVEWPELVGKSVEEAKKVILQDKPEAQIIVLPVGTIVTMEYRIDRVRLFVDKLDNIAQVPRVG [T23V], the “ddG of mutation (higher = less stable)” value is 0.32 kcal/mol, the denaturant m value turned out to be 1.67 kcal/mol/M and the “denaturant midpoint” value was determined as 3.83 M.
